Drawing on the supplement of paper PMC10724198, this text covers protein stability index for 44 sequences.

Data set [1] has as its system Saccharomyces cerevisiae. Briefly: protein stability index of tFT-peptide fusion in deletion strain of DAS1 (PSI (0-1 scale)); higher = more stable (slower turnover). Here is the method:
(§1)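 MPS profiling in S. cerevisiae of two library types built from selected 12-aa C-degron peptides (IN1, IN2, LN1, LN3, VN2, R1-R5, W1-W3, Atg1 and Rpa12 C-termini): saturation mutagenesis libraries and C-terminal +1 capping libraries (13 aa). Each peptide is fused to the C-terminus of a sfGFP-mCherry timer, after a GGGS linker. Cells are FACS-sorted into 8 mCherry/sfGFP bins and sequenced. PSI runs from 0 (unstable) to 1 (stable), measured once in wild type and in the das1Δ or doa10Δ background.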

Data set [2] relates to Saccharomyces cerevisiae. The experiment in a line: protein stability index of tFT-peptide fusion in wild type (PSI (0-1 scale)); higher = more stable (slower turnover). Conditions: genetic background: wild type. As to the method: as §1
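For protein stability index of tFT-peptide fusion in deletion strain of DAS1 in this document: PSI is a weighted mean of each variant's read distribution over the sorted stability bins, computed only for variants having over 10 reads in total.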
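For protein stability index of tFT-peptide fusion in wild type in this document: PSI derived as read-weighted mean over the 8 sorting bins, only variants exceeding 10 total reads kept, mCherry placed adjacent to the peptide and sfGFP distal.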

FSMLWTFRYWVN: the protein stability index in the data set with Saccharomyces cerevisiae [1] was determined as 0.346; in the data set on Saccharomyces cerevisiae [2], 0.0376.

FSMRLTFRYWVN: the figures for the protein stability index in the data set with Saccharomyces cerevisiae [1] and with Saccharomyces cerevisiae [2] were 0.401 and 0.0555, respectively.

Regarding FSMRWQFRYWVN, the protein stability index with Saccharomyces cerevisiae [1] stood at 0.53; in the data set on Saccharomyces cerevisiae [2] it was 0.0795.

Regarding FSMRWTCRYWVN, the protein stability index with Saccharomyces cerevisiae [1] was found to be 0.515; in the data set on Saccharomyces cerevisiae [2], 0.0505.

FSMRWTFEYWVN: the figures for the protein stability index with Saccharomyces cerevisiae [1] and with Saccharomyces cerevisiae [2] were 0.448 and 0.0782, respectively.

In the case of FSMRWTFRGWVN, the protein stability index with Saccharomyces cerevisiae [1] came out at 0.605; in the data set on Saccharomyces cerevisiae [2], 0.313.

With FSMRWTFRYIVN, the values for the protein stability index in the data set on Saccharomyces cerevisiae [1] and in the data set with Saccharomyces cerevisiae [2] were 0.475 and 0.202, respectively.

As for FSMRWTFRYWHN, the protein stability index with Saccharomyces cerevisiae [1] is 0.686; in the data set on Saccharomyces cerevisiae [2], 0.149.

With FSMRWTFRYWVNF, the protein stability index in the data set on Saccharomyces cerevisiae [1] turned out to be 0.523; with Saccharomyces cerevisiae [2], 0.076.

For the sequence FSMRWTFRYWVNH, the protein stability index with Saccharomyces cerevisiae [1] stood at 0.559; with Saccharomyces cerevisiae [2], 0.106.

For FSMRWTFRYWVNK, the figures for the protein stability index in the data set on Saccharomyces cerevisiae [1] and in the data set with Saccharomyces cerevisiae [2] were 0.532 and 0.522, respectively.

Take FSMRWTFRYWVNR: the protein stability index with Saccharomyces cerevisiae [1] came out at 0.562; in the data set with Saccharomyces cerevisiae [2], 0.559.

On to FSMRWTFRYWVNS, for which the protein stability index in the data set on Saccharomyces cerevisiae [1] amounted to 0.542; with Saccharomyces cerevisiae [2], 0.194.

As to FSMRWTFRYWVNT, the protein stability index came to 0.539 in the data set on Saccharomyces cerevisiae [1] and 0.318 with Saccharomyces cerevisiae [2].

For the sequence FSMRWTPRYWVN, the protein stability index worked out at 0.59 with Saccharomyces cerevisiae [1] and 0.0631 in the data set on Saccharomyces cerevisiae [2].

On to FSMRWTVRYWVN, for which the values for the protein stability index with Saccharomyces cerevisiae [1] and in the data set with Saccharomyces cerevisiae [2] were 0.454 and 0.0513, respectively.

FSMYWTFRYWVN: the protein stability index came out at 0.399 with Saccharomyces cerevisiae [1] and 0.0583 in the data set with Saccharomyces cerevisiae [2].

On to FSVRWTFRYWVN, for which the protein stability index in the data set on Saccharomyces cerevisiae [1] stood at 0.419; in the data set on Saccharomyces cerevisiae [2] it was 0.0298.

For the sequence GRGAVGGWRLVG, the protein stability index worked out at 0.671 in the data set on Saccharomyces cerevisiae [1] and 0.19 in the data set with Saccharomyces cerevisiae [2].

Take IKHKKGQKQKIN: the protein stability index in the data set on Saccharomyces cerevisiae [1] amounted to 0.608; in the data set on Saccharomyces cerevisiae [2], 0.109.

ITSCGYKFRTNN: the protein stability index is 0.674 in the data set on Saccharomyces cerevisiae [1] and 0.208 in the data set with Saccharomyces cerevisiae [2].

Consider KDHKKGQKQKIN, for which the protein stability index with Saccharomyces cerevisiae [1] worked out at 0.604; with Saccharomyces cerevisiae [2] it was 0.0956.

As for KKCKKGQKQKIN, the protein stability index with Saccharomyces cerevisiae [1] was found to be 0.593; in the data set with Saccharomyces cerevisiae [2] it was 0.102.

As for KKHKKEQKQKIN, the protein stability index is 0.678 in the data set on Saccharomyces cerevisiae [1] and 0.0895 in the data set with Saccharomyces cerevisiae [2].

In the case of KKHKKGQKFKIN, the protein stability index with Saccharomyces cerevisiae [1] stood at 0.572; in the data set with Saccharomyces cerevisiae [2], 0.158.

For the sequence KKHKKGQKNKIN, the results for the protein stability index with Saccharomyces cerevisiae [1] and in the data set with Saccharomyces cerevisiae [2] were 0.596 and 0.096, respectively.

Regarding KKHKKGQKQAIN, the protein stability index turned out to be 0.6 with Saccharomyces cerevisiae [1] and 0.57 in the data set with Saccharomyces cerevisiae [2].

For the sequence KKHKKGQKQKEN, the protein stability index with Saccharomyces cerevisiae [1] stood at 0.82; in the data set with Saccharomyces cerevisiae [2], 0.57.

Take KKHKKGQKQKING: the protein stability index turned out to be 0.653 in the data set on Saccharomyces cerevisiae [1] and 0.293 in the data set on Saccharomyces cerevisiae [2].

Turning to KKHKKGQKQKIT, the protein stability index with Saccharomyces cerevisiae [1] is 0.598; in the data set with Saccharomyces cerevisiae [2], 0.263.

On to KKHKKGQKQKIY, for which the protein stability index in the data set on Saccharomyces cerevisiae [1] was 0.594; with Saccharomyces cerevisiae [2] it was 0.255.

As to KKHKKGQKQKRN, the protein stability index was 0.575 in the data set with Saccharomyces cerevisiae [1] and 0.5 in the data set with Saccharomyces cerevisiae [2].

For the sequence KKHKKGQKQPIN, the protein stability index in the data set on Saccharomyces cerevisiae [1] turned out to be 0.587; in the data set on Saccharomyces cerevisiae [2], 0.637.

For the sequence KKHKKGQKSKIN, the protein stability index in the data set on Saccharomyces cerevisiae [1] turned out to be 0.562; in the data set with Saccharomyces cerevisiae [2] it was 0.548.

In the case of KKHKKGQMQKIN, the values for the protein stability index in the data set on Saccharomyces cerevisiae [1] and in the data set on Saccharomyces cerevisiae [2] were 0.626 and 0.209, respectively.

With KKHKKGQRQKIN, the protein stability index in the data set with Saccharomyces cerevisiae [1] turned out to be 0.599; in the data set with Saccharomyces cerevisiae [2] it was 0.0819.

With KKHKKGQWQKIN, the protein stability index in the data set on Saccharomyces cerevisiae [1] was 0.556; in the data set on Saccharomyces cerevisiae [2], 0.106.

For KKHKKYQKQKIN, the protein stability index stood at 0.587 in the data set with Saccharomyces cerevisiae [1] and 0.0518 with Saccharomyces cerevisiae [2].

On to KKHKPGQKQKIN, for which the figures for the protein stability index with Saccharomyces cerevisiae [1] and in the data set on Saccharomyces cerevisiae [2] were 0.607 and 0.143, respectively.

For the sequence KKHKWGQKQKIN, the protein stability index in the data set on Saccharomyces cerevisiae [1] came to 0.589; in the data set on Saccharomyces cerevisiae [2] it was 0.05.

Take KKHKYGQKQKIN: the results for the protein stability index in the data set on Saccharomyces cerevisiae [1] and in the data set with Saccharomyces cerevisiae [2] were 0.613 and 0.067, respectively.

Consider KKHLKGQKQKIN, for which the protein stability index with Saccharomyces cerevisiae [1] stood at 0.608; in the data set on Saccharomyces cerevisiae [2], 0.0828.

With KKHQKGQKQKIN, the values for the protein stability index in the data set on Saccharomyces cerevisiae [1] and in the data set with Saccharomyces cerevisiae [2] were 0.597 and 0.0868, respectively.

On to KNHKKGQKQKIN, for which the protein stability index came to 0.61 with Saccharomyces cerevisiae [1] and 0.121 in the data set with Saccharomyces cerevisiae [2].
